In patent US20150267177A1:
Like-named read-outs stand apart in the source and are kept apart here. Blank lines part the entries; values can stand above or below the molecule they belong to.

Legend:
[1] = system: Act-PB1 (MDH activator protein Act of Bacillus methanolicus PB1)
[2] = target: T1, Act-PB1 (MDH activator protein Act of Bacillus methanolicus PB1); remark: listed apart in the source
T1 sequence (Q8KP10 2-185, looked up): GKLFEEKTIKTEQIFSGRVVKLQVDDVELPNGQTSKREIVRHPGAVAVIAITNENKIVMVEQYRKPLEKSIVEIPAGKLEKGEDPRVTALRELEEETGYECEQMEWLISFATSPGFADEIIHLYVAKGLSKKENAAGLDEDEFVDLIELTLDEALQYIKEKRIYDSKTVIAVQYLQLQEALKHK

[3] = target: T2, Mdh-MGA3 (methanol dehydrogenase Mdh of Bacillus methanolicus MGA3, encoded on plasmid pBM19) (Bacillus methanolicus MGA3) (UniProt P31005); assay: cell-based or functional assay
T2 sequence: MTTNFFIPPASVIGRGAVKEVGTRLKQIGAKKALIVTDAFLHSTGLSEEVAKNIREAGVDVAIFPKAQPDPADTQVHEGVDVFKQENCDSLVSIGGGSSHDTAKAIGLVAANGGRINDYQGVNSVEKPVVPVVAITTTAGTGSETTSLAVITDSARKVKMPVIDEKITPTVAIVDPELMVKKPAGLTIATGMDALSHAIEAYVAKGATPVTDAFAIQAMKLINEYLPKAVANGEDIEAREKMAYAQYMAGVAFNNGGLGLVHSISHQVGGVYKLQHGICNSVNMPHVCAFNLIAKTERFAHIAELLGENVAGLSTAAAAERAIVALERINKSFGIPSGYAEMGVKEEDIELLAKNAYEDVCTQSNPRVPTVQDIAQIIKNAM

[4] = target: T3, Mdh2-MGA3 (methanol dehydrogenase Mdh2 of Bacillus methanolicus MGA3) (Bacillus methanolicus MGA3); assay: cell-based or functional assay
T3 sequence: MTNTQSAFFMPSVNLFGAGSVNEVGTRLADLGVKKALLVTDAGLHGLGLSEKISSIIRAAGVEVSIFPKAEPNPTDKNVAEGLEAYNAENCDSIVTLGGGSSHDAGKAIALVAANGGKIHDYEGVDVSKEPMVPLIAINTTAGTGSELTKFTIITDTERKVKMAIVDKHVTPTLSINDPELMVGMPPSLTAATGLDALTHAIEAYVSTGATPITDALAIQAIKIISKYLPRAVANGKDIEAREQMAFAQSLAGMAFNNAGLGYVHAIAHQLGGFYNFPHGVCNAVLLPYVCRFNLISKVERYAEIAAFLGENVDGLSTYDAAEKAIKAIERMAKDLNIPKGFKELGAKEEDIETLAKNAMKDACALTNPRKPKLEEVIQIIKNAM

[5] = target: T4, Mdh3-MGA3 (methanol dehydrogenase Mdh3 of Bacillus methanolicus MGA3) (Bacillus methanolicus MGA3); assay: cell-based or functional assay
T4 sequence: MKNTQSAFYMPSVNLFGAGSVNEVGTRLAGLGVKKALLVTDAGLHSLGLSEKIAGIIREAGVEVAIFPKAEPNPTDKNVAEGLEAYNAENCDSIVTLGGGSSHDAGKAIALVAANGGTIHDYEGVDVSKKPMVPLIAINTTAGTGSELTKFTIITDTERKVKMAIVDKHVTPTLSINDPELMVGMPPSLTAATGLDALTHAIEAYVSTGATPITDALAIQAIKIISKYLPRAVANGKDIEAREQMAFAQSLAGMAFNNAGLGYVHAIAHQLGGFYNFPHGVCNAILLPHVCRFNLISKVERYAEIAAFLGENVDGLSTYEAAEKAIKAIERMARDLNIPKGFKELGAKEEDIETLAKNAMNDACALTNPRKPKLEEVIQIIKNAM

the MGA3 MDHs = assay: cell-based or functional assay
[6] = target: T5, Act-MGA3 (MDH activator protein Act of Bacillus methanolicus MGA3)
T5 sequence (Q8KP10 2-185, looked up): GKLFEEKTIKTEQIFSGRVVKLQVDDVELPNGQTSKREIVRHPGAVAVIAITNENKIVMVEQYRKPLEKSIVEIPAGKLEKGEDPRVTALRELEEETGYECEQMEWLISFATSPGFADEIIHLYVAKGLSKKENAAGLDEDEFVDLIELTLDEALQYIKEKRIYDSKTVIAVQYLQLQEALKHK

[7] = target: T6, Mdh-MGA3 (methanol dehydrogenase Mdh of Bacillus methanolicus MGA3, encoded on plasmid pBM19)
T6 chain: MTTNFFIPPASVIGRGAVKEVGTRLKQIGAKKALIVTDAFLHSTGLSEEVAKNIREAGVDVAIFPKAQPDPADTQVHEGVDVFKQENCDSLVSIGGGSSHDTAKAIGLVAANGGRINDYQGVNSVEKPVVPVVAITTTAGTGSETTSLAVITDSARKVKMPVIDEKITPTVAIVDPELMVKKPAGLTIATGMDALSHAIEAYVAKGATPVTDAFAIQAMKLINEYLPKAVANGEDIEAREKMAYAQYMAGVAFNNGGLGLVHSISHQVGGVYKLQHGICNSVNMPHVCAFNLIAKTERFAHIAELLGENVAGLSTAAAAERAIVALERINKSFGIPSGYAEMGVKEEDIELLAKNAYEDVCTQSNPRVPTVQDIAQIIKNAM

Molecule: Mdh1-PB1 (methanol dehydrogenase Mdh1 of Bacillus methanolicus PB1)
Km for methanol in the presence of Act (20 ug MDH + 20 ug Act) [1]: 2.3 mM
Vmax with methanol in the presence of Act (20 ug MDH + 20 ug Act) [1]: 0.056 U/mg
Vmax with methanol, with Act against single enzyme assay [1]: The Vmax values were increased 4-6-fold compared to in the single enzyme assays
fold reduction of Km,MeOH by Act [1]: substantially reduced (16-fold and 70-fold, respectively) in the presence of Act

Molecule: Mdh-PB1 (methanol dehydrogenase Mdh of Bacillus methanolicus PB1, encoded on plasmid pBM20)
Km for methanol in the presence of Act (20 ug MDH + 20 ug Act) [1]: 13.9 mM
Vmax with methanol in the presence of Act (20 ug MDH + 20 ug Act) [1]: 0.2 U/mg
Vmax with methanol, with Act against single enzyme assay [1]: The Vmax values were increased 4-6-fold compared to in the single enzyme assays
fold reduction of Km,MeOH by Act [1]: substantially reduced (16-fold and 70-fold, respectively) in the presence of Act

B1: Mdh2-PB1 (methanol dehydrogenase Mdh2 of Bacillus methanolicus PB1) (protein)
chain: MTNTQSIFYIPSVNLFGPGSVNEVGTRLAGLGVKKALLVTDAGLHGLGLSEKIASIIREAGVEVLIFPKAEPNPTDKNVAEGLEVYNAENCDSIVTLGGGSSHDAGKGIALVAANGGTIYDYEGVDKSKKPMVPLIAINTTAGTGSELTRFTIITDTERKVKMAIVDKHVTPTLSINDPELMVGMPPSLTAATGLDALTHAIEAYVSTAATPITDALAIQAIKIISKYLPRAFANGKDMEAREQMAFAQSLAGMAFNNASLGYVHAIAHQFGGFYNFPHGVCNAILLPHVCRFNLISKVERFAEIAALLGENVAGLSTREAAEKGIKAIERMAKDLNIPRGFKELGAKEEDIVTLAENAMKDATALTNPRKPKLEEVIQIIKNAM
Km for methanol in the presence of Act (20 ug MDH + 20 ug Act) [2]: 36 mM
Vmax with methanol in the presence of Act (20 ug MDH + 20 ug Act) [2]: 0.24 U/mg
Vmax with methanol, with Act against single enzyme assay [2]: The Vmax values were increased 4-6-fold compared to in the single enzyme assays
fold reduction of Km,MeOH by Act [2]: moderately (4-fold) reduced by Act for Mdh2-PB1

Mdh activity in vitro, crude extract of E. coli co-expressing Act, 37 C, +Act [3]: 464 mU/mg
Mdh activity in vitro, crude extract of E. coli co-expressing Act, 45 C, +Act [3]: 1260 mU/mg
Mdh activity in vivo, E. coli cells co-expressing Act, 37 C, +Act [3]: 1 mU/mg
Mdh activity in vivo, E. coli cells co-expressing Act, 42 C, +Act [3]: 1 mU/mg
Mdh activity in vitro, crude extract of E. coli co-expressing Act, 37 C, +Act [4]: 672 mU/mg
Mdh activity in vitro, crude extract of E. coli co-expressing Act, 45 C, +Act [4]: 1910 mU/mg
Mdh activity in vivo, E. coli cells co-expressing Act, 37 C, +Act [4]: 9 mU/mg
Mdh activity in vivo, E. coli cells co-expressing Act, 42 C, +Act [4]: 11.3 mU/mg
Mdh activity in vitro, crude extract of E. coli co-expressing Act, 37 C, +Act [5]: 327 mU/mg
Mdh activity in vitro, crude extract of E. coli co-expressing Act, 45 C, +Act [5]: 867 mU/mg
Mdh activity in vivo, E. coli cells co-expressing Act, 37 C, +Act [5]: 11 mU/mg
Mdh activity in vivo, E. coli cells co-expressing Act, 42 C, +Act [5]: 24 mU/mg
fold increase of catalytic activity, ethanol as substrate (the MGA3 MDHs): 6 to 8 fold
fold induction of MDH activity, methanol as substrate, MDH:Act 1:1 (the MGA3 MDHs): 5 to 7 fold
B2: Act-MGA3 (MDH activator protein Act of Bacillus methanolicus MGA3) (protein, UniProt Q8KP10 2-185, looked up)
Methanol dehydrogenase activator: GKLFEEKTIKTEQIFSGRVVKLQVDDVELPNGQTSKREIVRHPGAVAVIAITNENKIVMVEQYRKPLEKSIVEIPAGKLEKGEDPRVTALRELEEETGYECEQMEWLISFATSPGFADEIIHLYVAKGLSKKENAAGLDEDEFVDLIELTLDEALQYIKEKRIYDSKTVIAVQYLQLQEALKHK

B3: Mdh2-MGA3 (methanol dehydrogenase Mdh2 of Bacillus methanolicus MGA3) (protein)
chain: MTNTQSAFFMPSVNLFGAGSVNEVGTRLADLGVKKALLVTDAGLHGLGLSEKISSIIRAAGVEVSIFPKAEPNPTDKNVAEGLEAYNAENCDSIVTLGGGSSHDAGKAIALVAANGGKIHDYEGVDVSKEPMVPLIAINTTAGTGSELTKFTIITDTERKVKMAIVDKHVTPTLSINDPELMVGMPPSLTAATGLDALTHAIEAYVSTGATPITDALAIQAIKIISKYLPRAVANGKDIEAREQMAFAQSLAGMAFNNAGLGYVHAIAHQLGGFYNFPHGVCNAVLLPYVCRFNLISKVERYAEIAAFLGENVDGLSTYDAAEKAIKAIERMAKDLNIPKGFKELGAKEEDIETLAKNAMKDACALTNPRKPKLEEVIQIIKNAM
Km for methanol in the presence of Act (20 ug MDH + 20 ug Act) [6]: 200 mM
Vmax with methanol in the presence of Act (20 ug MDH + 20 ug Act) [6]: 0.15 U/mg
Vmax with methanol, with Act against single enzyme assay [6]: The Vmax values were increased 4-6-fold compared to in the single enzyme assays
change of Km,MeOH by Act [6]: remained essentially the same as when tested without Act
methanol dehydrogenase activity in lysates of recombinant B. subtilis 168, methanol or ethanol as substrate, 50 C [6]: In all cases, methanol dehydrogenase activities were significantly stimulated by Act

B4: B. subtilis NudF protein (nudF gene product, ADP-ribose pyrophosphatase subfamily of Nudix hydrolases) (protein)
chain: MKSLEEKTIAKEQIFSGKVIDLYVEDVELPNGKASKREIVKHPGAVAVLAVTDEGKIIMVKQFRKPLERTIVEIPAGKLEKGEEPEYTALRELEEETGYTAKKLTKITAFYTSPGFADEIVHVFLAEELSVLEEKRELDEDEFVEVMEVTLEDALKLVESREVYDAKTAYAIQYLQLKEALQAQK
fold stimulation of Mdh activity, ethanol as substrate [7]: Mdh activity was stimulated equally well (about 8-fold) with NudF as with Act

B5: Mdh-MGA3 (methanol dehydrogenase Mdh of Bacillus methanolicus MGA3, encoded on plasmid pBM19) (protein)
chain: MTTNFFIPPASVIGRGAVKEVGTRLKQIGAKKALIVTDAFLHSTGLSEEVAKNIREAGVDVAIFPKAQPDPADTQVHEGVDVFKQENCDSLVSIGGGSSHDTAKAIGLVAANGGRINDYQGVNSVEKPVVPVVAITTTAGTGSETTSLAVITDSARKVKMPVIDEKITPTVAIVDPELMVKKPAGLTIATGMDALSHAIEAYVAKGATPVTDAFAIQAMKLINEYLPKAVANGEDIEAREKMAYAQYMAGVAFNNGGLGLVHSISHQVGGVYKLQHGICNSVNMPHVCAFNLIAKTERFAHIAELLGENVAGLSTAAAAERAIVALERINKSFGIPSGYAEMGVKEEDIELLAKNAYEDVCTQSNPRVPTVQDIAQIIKNAM
Km for methanol in the presence of Act (20 ug MDH + 20 ug Act) [6]: 12 mM
MDH catalytic activity with methanol as substrate, at relative concentrations of the proteins of 1:2-20:1 [6]: Full activation was reached at a relative concentration of between 1:1 and 5:1 and no inhibition due to relative high activator concentrations was observed
Vmax with methanol in the presence of Act (20 ug MDH + 20 ug Act) [6]: 0.5 U/mg
Vmax with methanol, with Act against single enzyme assay [6]: The Vmax values were increased 4-6-fold compared to in the single enzyme assays
fold reduction of Km,MeOH by Act [6]: dramatically reduced (17-fold) to 12 mM for Mdh-MGA3 when Act was added to the reaction
fold stimulation of Mdh activity, ethanol as substrate [6]: Mdh activity was stimulated equally well (about 8-fold) with NudF as with Act
methanol dehydrogenase activity in lysates of recombinant B. subtilis 168, methanol or ethanol as substrate, 50 C [6]: In all cases, methanol dehydrogenase activities were significantly stimulated by Act

B6: Mdh3-MGA3 (methanol dehydrogenase Mdh3 of Bacillus methanolicus MGA3) (protein)
chain: MKNTQSAFYMPSVNLFGAGSVNEVGTRLAGLGVKKALLVTDAGLHSLGLSEKIAGIIREAGVEVAIFPKAEPNPTDKNVAEGLEAYNAENCDSIVTLGGGSSHDAGKAIALVAANGGTIHDYEGVDVSKKPMVPLIAINTTAGTGSELTKFTIITDTERKVKMAIVDKHVTPTLSINDPELMVGMPPSLTAATGLDALTHAIEAYVSTGATPITDALAIQAIKIISKYLPRAVANGKDIEAREQMAFAQSLAGMAFNNAGLGYVHAIAHQLGGFYNFPHGVCNAILLPHVCRFNLISKVERYAEIAAFLGENVDGLSTYEAAEKAIKAIERMARDLNIPKGFKELGAKEEDIETLAKNAMNDACALTNPRKPKLEEVIQIIKNAM
Km for methanol in the presence of Act (20 ug MDH + 20 ug Act) [6]: 150 mM
Vmax with methanol in the presence of Act (20 ug MDH + 20 ug Act) [6]: 0.45 U/mg
Vmax with methanol, with Act against single enzyme assay [6]: The Vmax values were increased 4-6-fold compared to in the single enzyme assays
change of Km,MeOH by Act [6]: remained essentially the same as when tested without Act
methanol dehydrogenase activity in lysates of recombinant B. subtilis 168, methanol or ethanol as substrate, 50 C [6]: In all cases, methanol dehydrogenase activities were significantly stimulated by Act
